Where “and” joins values, the source holds several entries; their conditions need not be identical. Equal values may be shown once.
Legend:
p-gp = tested on: p-gp; design: method as in PMID 27499331; settings: cited from earlier work
[1] = tested on: organic anion transporters; design: method as in PMID 27499331; settings: cited from earlier work
[2] = substrate: CC(=O)C1=C(O)[C@@H](N)[C@H]2Cc3c(c(O)c4c(O)c(C)ccc4c3C)C(=O)[C@@]2(O)C1=O; test: Three-point uptake (substrate assessment) in mOat3-overexpressing HEK293 cells; format: in vitro ADME, mouse; settings: other: Michaelis–Menten fit, 0.1, 1 and 10 μM; 30.0 °C
Method: (§1) This is important to gain a better understanding of the underlying mechanisms of secretion into urine. Therefore, we assessed the amount of compound taken up by the vector and transporter cells at three different concentrations (1, 10, and 100 μM for mOat1 and mOct1; 0.1, 1, and 10 μM for mOat3) and at two different incubation periods (1 and 5 min for mOat1 and mOct1; 5 and 10 min for mOat3).
The incubation buffer contained CHD and CDCHD in a final concentration of 0.1, 1, and 10 μM. After 5 and 10 min, the incubation was terminated. In addition, the probe inhibitor probenecid (100 μM) was added in one concentration to 10 μM CHD and CDCHD, respectively, and after 5 and 10 min, the incubation was stopped. Inhibition of mOat3-mediated ^3H-ES (1 μM) uptake by 100 μM probenecid was performed as a control experiment. After 1 min, the incubation was terminated. […]
First, a calibration curve was prepared by spiking different concentrations of CHD and CDCHD into the cell matrix. […] Samples were analyzed using an Agilent 1290 Infinity II HPLC system coupled to an AB Sciex QTrap6500plus mass spectrometer. […]
(§2) For statistical testing of differences in uptake ratio or for the inhibitory effect, an ordinary one-way ANOVA test was performed using GraphPad Prism 9.5.1 software. […] Michaelis–Menten kinetics were determined using the Michaelis–Menten algorithm of GraphPad Prism 9.5.1 software. […]

[3] = substrate: Cc1ccc2c(C)c3c(c(O)c2c1O)C(=O)[C@@]1(O)C(=O)C(C(N)=O)=C(O)[C@@H](N)[C@H]1C3; test: Three-point uptake (substrate assessment) in mOct1-overexpressing HEK293 cells; format: in vitro ADME, mouse; settings: other: Michaelis–Menten fit, 1, 10 and 100 μM; 30.0 °C
Method: as §1
(§3) The incubation buffer contained CHD and CDCHD in a final concentration of 1, 10, and 100 μM. After 1 and 5 min, the incubation was terminated. In addition, the probe inhibitor decynium22 (50 μM) was added in one concentration to 10 μM CHD and CDCHD, respectively, and after 1 and 5 min, the incubation was stopped. Inhibition of mOct1-mediated ^3H-MPP (10 μM) uptake by 50 μM decynium22 was performed as a control experiment. After 1 min, the incubation was terminated. All experiments were conducted in triplicate.
(§4) First, a calibration curve was prepared by spiking different concentrations of CHD and CDCHD into the cell matrix. Caffeine was used as an internal standard. In addition, quality control samples (QCs) were prepared for CHD and CDCHD in a cell matrix. The following extraction procedures were used: 300 μL of acetonitrile/water (1:1) is added to the cell pellet (sample or calibration/QC sample) for 15 min at 2000 rpm on an Eppendorf MixMate vortex mixer. 10 μL of this extracted sample is used for further analysis. 10 μL of the extracted cell sample is further extracted with 25 μL of a mixture of methanol/acetonitrile (2:1) containing 12.5 ng/mL caffeine as an internal standard (on ice) for 5 min at 2000 rpm on an Eppendorf MixMate vortex mixer. […] Samples were analyzed using an Agilent 1290 Infinity II HPLC system coupled to an AB Sciex QTrap6500plus mass spectrometer. […]
as §2

[4] = substrate: CC(=O)C1=C(O)[C@@H](N)[C@H]2Cc3c(c(O)c4c(O)c(C)ccc4c3C)C(=O)[C@@]2(O)C1=O; test: as above; format: in vitro ADME, mouse; settings: other: Michaelis–Menten fit, 1, 10 and 100 μM; 30.0 °C
Method: as §1, §3, §4, §2

[5] = substrate: Cc1ccc2c(C)c3c(c(O)c2c1O)C(=O)[C@@]1(O)C(=O)C(C(N)=O)=C(O)[C@@H](N)[C@H]1C3; test: Three-point uptake (substrate assessment) in mOat1-overexpressing HEK293 cells; format: in vitro ADME, mouse; settings: other: Michaelis–Menten fit, 1, 10 and 100 μM; 30.0 °C
Method: as §1
as §3, with “probenecid (100” for “decynium22 (50”, “mOat1-mediated ^3H-PAH” for “mOct1-mediated ^3H-MPP”, “100” for “50”, “probenecid” for “decynium22”
(§5) First, a calibration curve was prepared by spiking different concentrations of CHD and CDCHD into the cell matrix. Caffeine was used as an internal standard. In addition, quality control samples (QCs) were prepared for CHD and CDCHD in a cell matrix. The following extraction procedures were used: 300 μL of acetonitrile/water (1:1) is added to the cell pellet (sample or calibration/QC sample) for 15 min at 2000 rpm on an Eppendorf MixMate vortex mixer. 10 μL of this extracted sample is used for further analysis. 10 μL of the extracted cell sample is further extracted with 25 μL of a mixture of methanol/acetonitrile (2:1) containing 12.5 ng/mL caffeine as an internal standard (on ice) for 5 min at 2000 rpm on an Eppendorf MixMate vortex mixer. Then, samples were spun down at 15,870 × g for 10 min. Supernatants were transferred to standard HPLC glass vials. Samples were analyzed using an Agilent 1290 Infinity II HPLC system coupled to an AB Sciex QTrap6500plus mass spectrometer. LC conditions were as follows: column: Agilent Zorbax Eclipse Plus C18, 50 × 2.1 mm, 1.8 μm; temperature: 30°C; injection volume: 5 μL per sample; flow rate: 700 μL/min. Samples were run under the following conditions. Solvents: A: 100% water +0.1% formic acid; solvent B: 100% acetonitrile +0.1% formic acid. The gradient for CDCHD was as follows: 99% A at 0 min, 99% A until 0.1 min, 99–90% A from 0.1 to 1.0 min, 90–50% A from 1.0 to 2.4 min, 50–35% A from 2.4 to 2.7 min, 35–0% A from 2.7 until 4.5 min, 0% A until 5.5 min, 0–99% from 5.5 to 5.7 min, 99% A until 6.0 min. […]
as §2

[6] = substrate: CC(=O)C1=C(O)[C@@H](N)[C@H]2Cc3c(c(O)c4c(O)c(C)ccc4c3C)C(=O)[C@@]2(O)C1=O; test: as above; format: in vitro ADME, mouse; settings: other: Michaelis–Menten fit, 1, 10 and 100 μM; 30.0 °C
Method: as §1
as §3, with “probenecid (100” for “decynium22 (50”, “mOat1-mediated ^3H-PAH” for “mOct1-mediated ^3H-MPP”, “100” for “50”, “probenecid” for “decynium22”
as §5, §2

## CN(C)c1cc(CNCC(C)(C)C)c(O)c2c1C[C@H]1C[C@H]3[C@H](N(C)C)C(O)=C(C(N)=O)C(=O)[C@@]3(O)C(O)=C1C2=O [omadacycline]
p-gp
  Km: ~82 µM
[1]
  substrate or inhibitor of organic anion transporters (in words): neither a substrate nor an inhibitor

B1: mOat3 (Mus musculus) (protein)
chain: MTFSEILDRVGSMGPFQYLHVTLLALPILGIANHNLLQIFTATTPDHHCRPPPNASLEPWVLPLGPNGKPEKCLRFVHLPNASLPNDTQGATEPCLDGWIYNSTRDTIVTEWDLVCGSNKLKEMAQSVFMAGILVGGPVFGELSDRFGRKPILTWSYLLLAASGSSAAFSPSLTVYMIFRFLCGCSISGISLSTIILNVEWVPTSTRAISSTTIGYCYTIGQFILPGLAYAVPQWRWLQLSVSAAFFIFSLLSWWVPESIRWLVLSGKFSKALKTLQRVATFNGKKEEGEKLTVEELKFNLQKDITSAKVKYGLSDLFRVSILRRVTFCLSLAWFATGFAYYSLAMGVEEFGVNIYILQIIFGGVDIPAKFITILSISYLGRRITQGFLLILAGVAILALIFVSSEMQLLRTALAVFGKGCLSGSFSCLFLYTSELYPTVLRQTGMGISNIWARVGSMIAPLVKITGELQPFIPNVIFGTMTLLGGSAAFFLLETLNRPLPETIEDIQDWYQQTKKTKQEPEAEKASQTIPLKTGGP
notes: expressed in transfected cells; host or cells: HEK293
[2]
  Km: 6.1 µM and 6 µM
  Vmax: 26.42 nM/min

B2: mOct1 (Mus musculus) (protein)
chain: MPTVDDVLEHVGEFGWFQKQAFLLLCLISASLAPIYVGIVFLGFTPDHHCRSPGVAELSQRCGWSPAEELNYTVPGLGSAGEASFLSQCMKYEVDWNQSTLDCVDPLSSLAANRSHLPLSPCEHGWVYDTPGSSIVTEFNLVCGDAWKVDLFQSCVNLGFFLGSLVVGYIADRFGRKLCLLVTTLVTSLSGVLTAVAPDYTSMLLFRLLQGMVSKGSWVSGYTLITEFVGSGYRRTTAILYQVAFTVGLVGLAGVAYAIPDWRWLQLAVSLPTFLFLLYYWFVPESPRWLLSQKRTTQAVRIMEQIAQKNRKVPPADLKMMCLEEDASERRSPSFADLFRTPSLRKHTLILMYLWFSCAVLYQGLIMHVGATGANLYLDFFYSSLVEFPAAFIILVTIDRIGRIYPIAASNLVAGAACLLMIFIPHELHWLNVTLACLGRMGATIVLQMVCLVNAELYPTFIRNLGMMVCSALCDLGGIFTPFMVFRLMEVWQALPLILFGVLGLSAGAVTLLLPETKGVALPETIEEAENLGRRKSKAKENTIYLQVQTGKSPHT
notes: as for B1
[3]
  Km: 55.2 µM
[4]
  Km: 8.91 µM and 8.9 µM
  Vmax: 49 nM/min

B3: mOat1 (Mus musculus) (protein)
chain: MAFNDLLKQVGGVGRFQLIQVTMVVAPLLLMASHNTLQNFTAAIPAHHCRPPANANLSKDGGLEAWLPLDKQGRPESCLRFPFPHNGTEANGTGVTEPCLDGWVYDNSTFPSTIVTEWNLVCSHRAFRQLAQSLFMVGVLLGAMMFGYLADRLGRRKVLILNYLQTAVSGTCAAYAPNYTVYCIFRLLSGMSLASIAINCMTLNMEWMPIHTRAYVGTLIGYVYSLGQFLLAGIAYAVPHWRHLQLAVSVPFFVAFIYSWFFIESARWYSSSGRLDLTLRALQRVARINGKQEEGAKLSIEVLQTSLQKELTLNKGQASAMELLRCPTLRRLFLCLSMLWFATSFAYYGLVMDLQGFGVSMYLIQVIFGAVDLPAKFVCFLVINSMGRRPAQLASLLLAGICILVNGIIPRGHTIIRTSLAVLGKGCLASSFNCIFLYTGELYPTMIRQTGLGMGSTMARVGSIVSPLISMTAEFYPSIPLFIFGAVPVAASAVTALLPETLGQPLPDTVQDLKSRSRGKQKQQQLEQQKQMIPLQVSTQEKNGL
notes: as for B1
[5]
  Km: 39.64 µM
  Vmax: 11.48 nM/min
[6]
  Km: 65.08 µM
  Vmax: 82.38 nM/min
